{"source": "the supplement of paper PMC7877785", "assay": "self-splicing fitness, log relative to wild type (ln ratio); higher = more splicing; Tetrahymena group I intron in knt gene, E. coli kanamycin selection, DiMSum; sequences stand for … in CUCUCU…GGAGGGAAAAGUUAUCAGGCAUGCACCUGGUAGCUAGUCUUUAAACCAAUAGAUUGCAUCGGUUUAAAAGGCAAGACCGUCAAAUUGCGGGAAAGGGGUCAACAGCCGUUCAGUACCAAGUCUCAGGGGAAACUUUGAGAUGGCCUUGCAAAGGGUAUGGUAAUAAGCUGACGGACAUGGUCCUAACCACGCAGCCAAGUCCUAAGUCAACAGAUCUUCUGUUGAUAUGGAUGCAGUUCACAGACUAAAUGUCGGUCGGGGAAGAUGUAUUCUUCUCAUAAGAUAUAGUCGGACCUCUCCUUAAUGGGAGCUAGCGGAUGAAGUGAUGCAACACUGGAGCCGCUGGGAACUAAUUUGUAUGCGAAAGUAUAUUGAUUAGUUUUGGAGUACUCGUGGUCG", "procedure,_shortened": "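Fitness was computed with DiMSum as the error-weighted combination of replicate fold changes, kanamycin versus none, each normalised to wild type. The library randomised all eight intron nucleotides of the P1ex region, with the intron placed in the knt kanamycin-resistance gene on pET-22b(+) in E. coli BL21(DE3). Six replicate transformations were grown overnight at 37°C or 30°C on LB agar with or without 25 μg/mL kanamycin, plus 100 μg/mL carbenicillin, 50 μM IPTG and 0.2% rhamnose. Pooled colonies were amplicon-sequenced on an Illumina HiSeq 2500.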", "note": "± gives the uncertainty stated by the source."}
{"sequence": "UUGUAGCAAUAUUACGGCUU", "values": [{"measurement": "self-splicing fitness (ln)", "setting": "30 °C", "result": "-1.41 ± 0.12"}, {"measurement": "self-splicing fitness (ln)", "setting": "37 °C", "result": "0.113 ± 0.14"}]}
{"sequence": "ACCCAGCAAUAUUACGUCAU", "values": [{"measurement": "self-splicing fitness (ln)", "setting": "30 °C", "result": "-1.84 ± 0.049"}, {"measurement": "self-splicing fitness (ln)", "setting": "37 °C", "result": "-0.414 ± 0.059"}]}
{"sequence": "UAGGAGCAAUAUUACGCCCG", "values": [{"measurement": "self-splicing fitness (ln)", "setting": "30 °C", "result": "-1.53 ± 0.19"}, {"measurement": "self-splicing fitness (ln)", "setting": "37 °C", "result": "-0.352 ± 0.17"}]}
{"sequence": "UACUAGCAAUAUUACGGCGU", "values": [{"measurement": "self-splicing fitness (ln)", "setting": "30 °C", "result": "-2.16 ± 0.11"}, {"measurement": "self-splicing fitness (ln)", "setting": "37 °C", "result": "-0.707 ± 0.12"}]}
{"sequence": "GCGAAGCAAUAUUACGUGCG", "values": [{"measurement": "self-splicing fitness (ln)", "setting": "30 °C", "result": "-2.31 ± 0.16"}, {"measurement": "self-splicing fitness (ln)", "setting": "37 °C", "result": "-1.5 ± 0.18"}]}
{"sequence": "UAACAGCAAUAUUACGUACG", "values": [{"measurement": "self-splicing fitness (ln)", "setting": "30 °C", "result": "-0.675 ± 0.047"}, {"measurement": "self-splicing fitness (ln)", "setting": "37 °C", "result": "-0.193 ± 0.069"}]}
{"sequence": "CUGAAGCAAUAUUACGUGCA", "values": [{"measurement": "self-splicing fitness (ln)", "setting": "30 °C", "result": "-3.96 ± 0.27"}, {"measurement": "self-splicing fitness (ln)", "setting": "37 °C", "result": "-2.82 ± 0.25"}]}
{"sequence": "CCUCAGCAAUAUUACGACAA", "values": [{"measurement": "self-splicing fitness (ln)", "setting": "30 °C", "result": "-1.92 ± 0.17"}, {"measurement": "self-splicing fitness (ln)", "setting": "37 °C", "result": "-2.31 ± 0.25"}]}
{"sequence": "GACCAGCAAUAUUACGCCAU", "values": [{"measurement": "self-splicing fitness (ln)", "setting": "30 °C", "result": "-3.59 ± 0.17"}, {"measurement": "self-splicing fitness (ln)", "setting": "37 °C", "result": "-2.09 ± 0.13"}]}
{"sequence": "UGCGAGCAAUAUUACGGUAU", "values": [{"measurement": "self-splicing fitness (ln)", "setting": "30 °C", "result": "-5.17 ± 0.38"}, {"measurement": "self-splicing fitness (ln)", "setting": "37 °C", "result": "-2.32 ± 0.19"}]}
{"sequence": "UAAAAGCAAUAUUACGCCUC", "values": [{"measurement": "self-splicing fitness (ln)", "setting": "30 °C", "result": "-2.82 ± 0.43"}]}
{"sequence": "GCCCAGCAAUAUUACGAUAA", "values": [{"measurement": "self-splicing fitness (ln)", "setting": "30 °C", "result": "-2.26 ± 0.11"}, {"measurement": "self-splicing fitness (ln)", "setting": "37 °C", "result": "-1.57 ± 0.13"}]}
{"sequence": "GGGGAGCAAUAUUACGAACU", "values": [{"measurement": "self-splicing fitness (ln)", "setting": "30 °C", "result": "-2.75 ± 0.31"}, {"measurement": "self-splicing fitness (ln)", "setting": "37 °C", "result": "-1.76 ± 0.27"}]}
{"sequence": "UUCCAGCAAUAUUACGACAG", "values": [{"measurement": "self-splicing fitness (ln)", "setting": "30 °C", "result": "-1.39 ± 0.17"}, {"measurement": "self-splicing fitness (ln)", "setting": "37 °C", "result": "-0.449 ± 0.18"}]}
{"sequence": "UACGAGCAAUAUUACGGCGC", "values": [{"measurement": "self-splicing fitness (ln)", "setting": "30 °C", "result": "-2.53 ± 0.29"}, {"measurement": "self-splicing fitness (ln)", "setting": "37 °C", "result": "-2.4 ± 0.46"}]}
{"sequence": "GCUCAGCAAUAUUACGCGAA", "values": [{"measurement": "self-splicing fitness (ln)", "setting": "30 °C", "result": "-0.998 ± 0.11"}, {"measurement": "self-splicing fitness (ln)", "setting": "37 °C", "result": "-0.98 ± 0.12"}]}
{"sequence": "AGAAAGCAAUAUUACGACGU", "values": [{"measurement": "self-splicing fitness (ln)", "setting": "30 °C", "result": "0.0909 ± 0.1"}, {"measurement": "self-splicing fitness (ln)", "setting": "37 °C", "result": "0.35 ± 0.1"}]}
{"sequence": "UUGAAGCAAUAUUACGAGCA", "values": [{"measurement": "self-splicing fitness (ln)", "setting": "30 °C", "result": "-0.381 ± 0.12"}, {"measurement": "self-splicing fitness (ln)", "setting": "37 °C", "result": "0.224 ± 0.14"}]}
{"sequence": "CCUCAGCAAUAUUACGCCAG", "values": [{"measurement": "self-splicing fitness (ln)", "setting": "30 °C", "result": "-3.22 ± 0.16"}, {"measurement": "self-splicing fitness (ln)", "setting": "37 °C", "result": "-0.883 ± 0.13"}]}
{"sequence": "AGUCAGCAAUAUUACGUGGG", "values": [{"measurement": "self-splicing fitness (ln)", "setting": "30 °C", "result": "-4.29 ± 0.21"}, {"measurement": "self-splicing fitness (ln)", "setting": "37 °C", "result": "-2.44 ± 0.14"}]}
{"sequence": "CUAAAGCAAUAUUACGUCAA", "values": [{"measurement": "self-splicing fitness (ln)", "setting": "30 °C", "result": "-4.32 ± 0.32"}, {"measurement": "self-splicing fitness (ln)", "setting": "37 °C", "result": "-2.08 ± 0.28"}]}
{"sequence": "AGGAAGCAAUAUUACGCGAU", "values": [{"measurement": "self-splicing fitness (ln)", "setting": "30 °C", "result": "-3.28 ± 0.28"}, {"measurement": "self-splicing fitness (ln)", "setting": "37 °C", "result": "-2.11 ± 0.25"}]}
{"sequence": "UAUUAGCAAUAUUACGGAGA", "values": [{"measurement": "self-splicing fitness (ln)", "setting": "30 °C", "result": "-2.09 ± 0.25"}, {"measurement": "self-splicing fitness (ln)", "setting": "37 °C", "result": "-2.18 ± 0.32"}]}
{"sequence": "GAUGAGCAAUAUUACGGAGA", "values": [{"measurement": "self-splicing fitness (ln)", "setting": "30 °C", "result": "-2.91 ± 0.5"}, {"measurement": "self-splicing fitness (ln)", "setting": "37 °C", "result": "-3 ± 0.47"}]}
{"sequence": "CCACAGCAAUAUUACGGCAA", "values": [{"measurement": "self-splicing fitness (ln)", "setting": "30 °C", "result": "-2.92 ± 0.29"}, {"measurement": "self-splicing fitness (ln)", "setting": "37 °C", "result": "-2.74 ± 0.32"}]}
{"sequence": "CAUAAGCAAUAUUACGUGGC", "values": [{"measurement": "self-splicing fitness (ln)", "setting": "37 °C", "result": "-1.86 ± 0.25"}]}
{"sequence": "UUAUAGCAAUAUUACGCGCA", "values": [{"measurement": "self-splicing fitness (ln)", "setting": "30 °C", "result": "-1.06 ± 0.19"}, {"measurement": "self-splicing fitness (ln)", "setting": "37 °C", "result": "-0.728 ± 0.2"}]}
{"sequence": "UAUCAGCAAUAUUACGUUCA", "values": [{"measurement": "self-splicing fitness (ln)", "setting": "30 °C", "result": "-0.267 ± 0.11"}, {"measurement": "self-splicing fitness (ln)", "setting": "37 °C", "result": "0.345 ± 0.15"}]}
{"sequence": "UGGAAGCAAUAUUACGUUAA", "values": [{"measurement": "self-splicing fitness (ln)", "setting": "30 °C", "result": "-0.681 ± 0.36"}, {"measurement": "self-splicing fitness (ln)", "setting": "37 °C", "result": "-0.67 ± 0.3"}]}
{"sequence": "UCCAAGCAAUAUUACGGAAC", "values": [{"measurement": "self-splicing fitness (ln)", "setting": "37 °C", "result": "-3.52 ± 0.35"}]}
{"sequence": "GGGAAGCAAUAUUACGCGGG", "values": [{"measurement": "self-splicing fitness (ln)", "setting": "30 °C", "result": "-1.49 ± 0.23"}, {"measurement": "self-splicing fitness (ln)", "setting": "37 °C", "result": "-1.8 ± 0.25"}]}
{"sequence": "GUAGAGCAAUAUUACGAUAC", "values": [{"measurement": "self-splicing fitness (ln)", "setting": "30 °C", "result": "-1.42 ± 0.13"}, {"measurement": "self-splicing fitness (ln)", "setting": "37 °C", "result": "-0.561 ± 0.18"}]}
{"sequence": "UGUUAGCAAUAUUACGAGAA", "values": [{"measurement": "self-splicing fitness (ln)", "setting": "30 °C", "result": "-2.27 ± 0.34"}, {"measurement": "self-splicing fitness (ln)", "setting": "37 °C", "result": "-1.85 ± 0.38"}]}
{"sequence": "ACCGAGCAAUAUUACGUGGG", "values": [{"measurement": "self-splicing fitness (ln)", "setting": "30 °C", "result": "-2.62 ± 0.18"}, {"measurement": "self-splicing fitness (ln)", "setting": "37 °C", "result": "-2.87 ± 0.2"}]}
{"sequence": "CCGAAGCAAUAUUACGCUCG", "values": [{"measurement": "self-splicing fitness (ln)", "setting": "30 °C", "result": "-1.57 ± 0.18"}, {"measurement": "self-splicing fitness (ln)", "setting": "37 °C", "result": "-1.53 ± 0.21"}]}
{"sequence": "AUCCAGCAAUAUUACGAUGC", "values": [{"measurement": "self-splicing fitness (ln)", "setting": "30 °C", "result": "-2.01 ± 0.15"}, {"measurement": "self-splicing fitness (ln)", "setting": "37 °C", "result": "-0.963 ± 0.17"}]}
{"sequence": "CACUAGCAAUAUUACGUCUC", "values": [{"measurement": "self-splicing fitness (ln)", "setting": "30 °C", "result": "-4.18 ± 0.26"}, {"measurement": "self-splicing fitness (ln)", "setting": "37 °C", "result": "-2.43 ± 0.2"}]}
{"sequence": "GAGUAGCAAUAUUACGGUGG", "values": [{"measurement": "self-splicing fitness (ln)", "setting": "30 °C", "result": "-3.37 ± 0.26"}, {"measurement": "self-splicing fitness (ln)", "setting": "37 °C", "result": "-2.15 ± 0.18"}]}
{"sequence": "GACUAGCAAUAUUACGUACU", "values": [{"measurement": "self-splicing fitness (ln)", "setting": "30 °C", "result": "-1.13 ± 0.094"}, {"measurement": "self-splicing fitness (ln)", "setting": "37 °C", "result": "-0.372 ± 0.14"}]}
